In patent US20210388087A1 (Chugai, published 2021):

B1: GLS3000 F55D (antibody, name in Kabat numbering, V domains shown)
VH: QVQLVESGGGVVQPGRSLRLSCAASGFTFSNAWMHWVRQAPGKGLEWVAQIKAKSNNYATYYAESVKGRFTISRDDSKNSLYLQMNSLKTEDTAVYYCRYVHYGAYYGVDAWGQGTTVTVSS
VL: DIVMTQSPLSLPVTPGEPASISCRSSQSLVHSNRNTYLHWYQQKPGQAPRLLIYKVSNRDSGVPDRFSGSGSGTDFTLKISRVEAEDVGVYYCGQGTQVPYTFGQGTKLEIK
notes: one-arm IgG as m2
B2: GLS3000 F55E (antibody, name in Kabat numbering, V domains shown)
VH: QVQLVESGGGVVQPGRSLRLSCAASGFTFSNAWMHWVRQAPGKGLEWVAQIKAKSNNYATYYAESVKGRFTISRDDSKNSLYLQMNSLKTEDTAVYYCRYVHYGAYYGVDAWGQGTTVTVSS
VL: DIVMTQSPLSLPVTPGEPASISCRSSQSLVHSNRNTYLHWYQQKPGQAPRLLIYKVSNRESGVPDRFSGSGSGTDFTLKISRVEAEDVGVYYCGQGTQVPYTFGQGTKLEIK
notes: one-arm IgG as m2
B3: GLS3000 F55G (antibody, name in Kabat numbering, V domains shown)
VH: QVQLVESGGGVVQPGRSLRLSCAASGFTFSNAWMHWVRQAPGKGLEWVAQIKAKSNNYATYYAESVKGRFTISRDDSKNSLYLQMNSLKTEDTAVYYCRYVHYGAYYGVDAWGQGTTVTVSS
VL: DIVMTQSPLSLPVTPGEPASISCRSSQSLVHSNRNTYLHWYQQKPGQAPRLLIYKVSNRGSGVPDRFSGSGSGTDFTLKISRVEAEDVGVYYCGQGTQVPYTFGQGTKLEIK
notes: one-arm IgG as m2
B4: GLS3000 F55H (antibody, name in Kabat numbering, V domains shown)
VH: QVQLVESGGGVVQPGRSLRLSCAASGFTFSNAWMHWVRQAPGKGLEWVAQIKAKSNNYATYYAESVKGRFTISRDDSKNSLYLQMNSLKTEDTAVYYCRYVHYGAYYGVDAWGQGTTVTVSS
VL: DIVMTQSPLSLPVTPGEPASISCRSSQSLVHSNRNTYLHWYQQKPGQAPRLLIYKVSNRHSGVPDRFSGSGSGTDFTLKISRVEAEDVGVYYCGQGTQVPYTFGQGTKLEIK
notes: one-arm IgG as m2
B5: GLS3000 F55I (antibody, name in Kabat numbering, V domains shown)
VH: QVQLVESGGGVVQPGRSLRLSCAASGFTFSNAWMHWVRQAPGKGLEWVAQIKAKSNNYATYYAESVKGRFTISRDDSKNSLYLQMNSLKTEDTAVYYCRYVHYGAYYGVDAWGQGTTVTVSS
VL: DIVMTQSPLSLPVTPGEPASISCRSSQSLVHSNRNTYLHWYQQKPGQAPRLLIYKVSNRISGVPDRFSGSGSGTDFTLKISRVEAEDVGVYYCGQGTQVPYTFGQGTKLEIK
notes: one-arm IgG as m2
B6: GLS3000 F55K (antibody, name in Kabat numbering, V domains shown)
VH: QVQLVESGGGVVQPGRSLRLSCAASGFTFSNAWMHWVRQAPGKGLEWVAQIKAKSNNYATYYAESVKGRFTISRDDSKNSLYLQMNSLKTEDTAVYYCRYVHYGAYYGVDAWGQGTTVTVSS
VL: DIVMTQSPLSLPVTPGEPASISCRSSQSLVHSNRNTYLHWYQQKPGQAPRLLIYKVSNRKSGVPDRFSGSGSGTDFTLKISRVEAEDVGVYYCGQGTQVPYTFGQGTKLEIK
notes: one-arm IgG as m2
B7: GLS3000 F55L (antibody, name in Kabat numbering, V domains shown)
VH: QVQLVESGGGVVQPGRSLRLSCAASGFTFSNAWMHWVRQAPGKGLEWVAQIKAKSNNYATYYAESVKGRFTISRDDSKNSLYLQMNSLKTEDTAVYYCRYVHYGAYYGVDAWGQGTTVTVSS
VL: DIVMTQSPLSLPVTPGEPASISCRSSQSLVHSNRNTYLHWYQQKPGQAPRLLIYKVSNRLSGVPDRFSGSGSGTDFTLKISRVEAEDVGVYYCGQGTQVPYTFGQGTKLEIK
notes: one-arm IgG as m2
B8: GLS3000 F55M (antibody, name in Kabat numbering, V domains shown)
VH: QVQLVESGGGVVQPGRSLRLSCAASGFTFSNAWMHWVRQAPGKGLEWVAQIKAKSNNYATYYAESVKGRFTISRDDSKNSLYLQMNSLKTEDTAVYYCRYVHYGAYYGVDAWGQGTTVTVSS
VL: DIVMTQSPLSLPVTPGEPASISCRSSQSLVHSNRNTYLHWYQQKPGQAPRLLIYKVSNRMSGVPDRFSGSGSGTDFTLKISRVEAEDVGVYYCGQGTQVPYTFGQGTKLEIK
notes: one-arm IgG as m2
B9: GLS3000 F55N (antibody, name in Kabat numbering, V domains shown)
VH: QVQLVESGGGVVQPGRSLRLSCAASGFTFSNAWMHWVRQAPGKGLEWVAQIKAKSNNYATYYAESVKGRFTISRDDSKNSLYLQMNSLKTEDTAVYYCRYVHYGAYYGVDAWGQGTTVTVSS
VL: DIVMTQSPLSLPVTPGEPASISCRSSQSLVHSNRNTYLHWYQQKPGQAPRLLIYKVSNRNSGVPDRFSGSGSGTDFTLKISRVEAEDVGVYYCGQGTQVPYTFGQGTKLEIK
notes: one-arm IgG as m2
B10: GLS3000 F55P (antibody, name in Kabat numbering, V domains shown)
VH: QVQLVESGGGVVQPGRSLRLSCAASGFTFSNAWMHWVRQAPGKGLEWVAQIKAKSNNYATYYAESVKGRFTISRDDSKNSLYLQMNSLKTEDTAVYYCRYVHYGAYYGVDAWGQGTTVTVSS
VL: DIVMTQSPLSLPVTPGEPASISCRSSQSLVHSNRNTYLHWYQQKPGQAPRLLIYKVSNRPSGVPDRFSGSGSGTDFTLKISRVEAEDVGVYYCGQGTQVPYTFGQGTKLEIK
notes: one-arm IgG as m2
B11: GLS3000 F55Q (antibody, name in Kabat numbering, V domains shown)
VH: QVQLVESGGGVVQPGRSLRLSCAASGFTFSNAWMHWVRQAPGKGLEWVAQIKAKSNNYATYYAESVKGRFTISRDDSKNSLYLQMNSLKTEDTAVYYCRYVHYGAYYGVDAWGQGTTVTVSS
VL: DIVMTQSPLSLPVTPGEPASISCRSSQSLVHSNRNTYLHWYQQKPGQAPRLLIYKVSNRQSGVPDRFSGSGSGTDFTLKISRVEAEDVGVYYCGQGTQVPYTFGQGTKLEIK
notes: one-arm IgG as m2
B12: GLS3000 F55R (antibody, name in Kabat numbering, V domains shown)
VH: QVQLVESGGGVVQPGRSLRLSCAASGFTFSNAWMHWVRQAPGKGLEWVAQIKAKSNNYATYYAESVKGRFTISRDDSKNSLYLQMNSLKTEDTAVYYCRYVHYGAYYGVDAWGQGTTVTVSS
VL: DIVMTQSPLSLPVTPGEPASISCRSSQSLVHSNRNTYLHWYQQKPGQAPRLLIYKVSNRRSGVPDRFSGSGSGTDFTLKISRVEAEDVGVYYCGQGTQVPYTFGQGTKLEIK
notes: one-arm IgG as m2
B13: GLS3000 F55S (antibody, name in Kabat numbering, V domains shown)
VH: QVQLVESGGGVVQPGRSLRLSCAASGFTFSNAWMHWVRQAPGKGLEWVAQIKAKSNNYATYYAESVKGRFTISRDDSKNSLYLQMNSLKTEDTAVYYCRYVHYGAYYGVDAWGQGTTVTVSS
VL: DIVMTQSPLSLPVTPGEPASISCRSSQSLVHSNRNTYLHWYQQKPGQAPRLLIYKVSNRSSGVPDRFSGSGSGTDFTLKISRVEAEDVGVYYCGQGTQVPYTFGQGTKLEIK
notes: one-arm IgG as m2
B14: GLS3000 F55T (antibody, name in Kabat numbering, V domains shown)
VH: QVQLVESGGGVVQPGRSLRLSCAASGFTFSNAWMHWVRQAPGKGLEWVAQIKAKSNNYATYYAESVKGRFTISRDDSKNSLYLQMNSLKTEDTAVYYCRYVHYGAYYGVDAWGQGTTVTVSS
VL: DIVMTQSPLSLPVTPGEPASISCRSSQSLVHSNRNTYLHWYQQKPGQAPRLLIYKVSNRTSGVPDRFSGSGSGTDFTLKISRVEAEDVGVYYCGQGTQVPYTFGQGTKLEIK
notes: one-arm IgG as m2
B15: GLS3000 F55V (antibody, name in Kabat numbering, V domains shown)
VH: QVQLVESGGGVVQPGRSLRLSCAASGFTFSNAWMHWVRQAPGKGLEWVAQIKAKSNNYATYYAESVKGRFTISRDDSKNSLYLQMNSLKTEDTAVYYCRYVHYGAYYGVDAWGQGTTVTVSS
VL: DIVMTQSPLSLPVTPGEPASISCRSSQSLVHSNRNTYLHWYQQKPGQAPRLLIYKVSNRVSGVPDRFSGSGSGTDFTLKISRVEAEDVGVYYCGQGTQVPYTFGQGTKLEIK
notes: one-arm IgG as m2
B16: GLS3000 F55W (antibody, name in Kabat numbering, V domains shown)
VH: QVQLVESGGGVVQPGRSLRLSCAASGFTFSNAWMHWVRQAPGKGLEWVAQIKAKSNNYATYYAESVKGRFTISRDDSKNSLYLQMNSLKTEDTAVYYCRYVHYGAYYGVDAWGQGTTVTVSS
VL: DIVMTQSPLSLPVTPGEPASISCRSSQSLVHSNRNTYLHWYQQKPGQAPRLLIYKVSNRWSGVPDRFSGSGSGTDFTLKISRVEAEDVGVYYCGQGTQVPYTFGQGTKLEIK
notes: one-arm IgG as m2
B17: GLS3000 F55Y (antibody, name in Kabat numbering, V domains shown)
VH: QVQLVESGGGVVQPGRSLRLSCAASGFTFSNAWMHWVRQAPGKGLEWVAQIKAKSNNYATYYAESVKGRFTISRDDSKNSLYLQMNSLKTEDTAVYYCRYVHYGAYYGVDAWGQGTTVTVSS
VL: DIVMTQSPLSLPVTPGEPASISCRSSQSLVHSNRNTYLHWYQQKPGQAPRLLIYKVSNRYSGVPDRFSGSGSGTDFTLKISRVEAEDVGVYYCGQGTQVPYTFGQGTKLEIK
notes: one-arm IgG as m2
B18: GLS3000 G89A (antibody, name in Kabat numbering, V domains shown)
VH: QVQLVESGGGVVQPGRSLRLSCAASGFTFSNAWMHWVRQAPGKGLEWVAQIKAKSNNYATYYAESVKGRFTISRDDSKNSLYLQMNSLKTEDTAVYYCRYVHYGAYYGVDAWGQGTTVTVSS
VL: DIVMTQSPLSLPVTPGEPASISCRSSQSLVHSNRNTYLHWYQQKPGQAPRLLIYKVSNRFSGVPDRFSGSGSGTDFTLKISRVEAEDVGVYYCAQGTQVPYTFGQGTKLEIK
notes: one-arm IgG as m2
B19: GLS3000 G89D (antibody, name in Kabat numbering, V domains shown)
VH: QVQLVESGGGVVQPGRSLRLSCAASGFTFSNAWMHWVRQAPGKGLEWVAQIKAKSNNYATYYAESVKGRFTISRDDSKNSLYLQMNSLKTEDTAVYYCRYVHYGAYYGVDAWGQGTTVTVSS
VL: DIVMTQSPLSLPVTPGEPASISCRSSQSLVHSNRNTYLHWYQQKPGQAPRLLIYKVSNRFSGVPDRFSGSGSGTDFTLKISRVEAEDVGVYYCDQGTQVPYTFGQGTKLEIK
notes: one-arm IgG as m2
B20: GLS3000 G89E (antibody, name in Kabat numbering, V domains shown)
VH: QVQLVESGGGVVQPGRSLRLSCAASGFTFSNAWMHWVRQAPGKGLEWVAQIKAKSNNYATYYAESVKGRFTISRDDSKNSLYLQMNSLKTEDTAVYYCRYVHYGAYYGVDAWGQGTTVTVSS
VL: DIVMTQSPLSLPVTPGEPASISCRSSQSLVHSNRNTYLHWYQQKPGQAPRLLIYKVSNRFSGVPDRFSGSGSGTDFTLKISRVEAEDVGVYYCEQGTQVPYTFGQGTKLEIK
notes: one-arm IgG as m2
B21: GLS3000 G89F (antibody, name in Kabat numbering, V domains shown)
VH: QVQLVESGGGVVQPGRSLRLSCAASGFTFSNAWMHWVRQAPGKGLEWVAQIKAKSNNYATYYAESVKGRFTISRDDSKNSLYLQMNSLKTEDTAVYYCRYVHYGAYYGVDAWGQGTTVTVSS
VL: DIVMTQSPLSLPVTPGEPASISCRSSQSLVHSNRNTYLHWYQQKPGQAPRLLIYKVSNRFSGVPDRFSGSGSGTDFTLKISRVEAEDVGVYYCFQGTQVPYTFGQGTKLEIK
notes: one-arm IgG as m2

Biological target: T1, CD3 epsilon homodimer protein (UniProt P07766 23-126)
T1 construct: also called CD3 (CD3 epsilon)
Test: SPR Biacore T200, CD3e homodimer on chip, vs unaltered GLS3000 antibody
Method: An appropriate amount of CD3 epsilon homodimer protein was immobilized onto Sensor chip CM4 (GE Healthcare Japan Corp.) by the amine coupling method. Then, the antibody having an appropriate concentration was injected thereto as an analyte and allowed to interact with the CD3 epsilon homodimer protein on the sensor chip. Then, the sensor chip was regenerated by the injection of 10 mmol/L glycine-HCl (pH 1.5). The assay was conducted at 25 degrees C., and HBS-EP+(GE Healthcare Japan Corp.) was used as a running buffer. […] Each parameter was calculated using Biacore T200 Evaluation Software (GE Healthcare Japan Corp.).

T1 sequence (P07766 23-126): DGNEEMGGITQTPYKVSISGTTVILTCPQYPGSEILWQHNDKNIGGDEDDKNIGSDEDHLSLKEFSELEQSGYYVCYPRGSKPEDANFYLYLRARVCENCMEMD

Binder	ratio of amounts bound (Z=Y/X)
B1	0.65
B2	0.72
B3	1.31
B4	0.94
B5	0.82
B6	1.33
B7	0.76
B8	0.8
B9	0.98
B10	1.16
B11	0.91
B12	1.31
B13	0.69
B14	0.41
B15	0.71
B16	0.69
B17	0.92
B18	1.13
B19	0.33
B20	0.26
B21	1.09
